Source: US20130084293A1 (LA JOLLA INSTITUTE FOR ALLERGY AND IMMUNOLOGY, published 2013)

Target: the molecule itself
Test: self-association: reducing and non-reducing SDS-PAGE and size exclusion chromatography of purified mHRF-His6

B1: C-terminally hexahistidine-tagged mouse HRF (mHRF-His6) (ligand)
chain: MIIYRDLISHDELFSDIYKIREIADGLCLEVEGKMVSRTEGAIDDSLIGGNASAEGPEGEGTESTVVTGVDIVMNHHLQETSFTKEAYKKYIKDYMKSLKGKLEEQKPERVKPFMTGAAEQIKHILANFNNYQFFIGENMNPDGMVALLDYREDGVTPFMIFFKDGLEMEKCHHHHHH
notes: Expressed in E. coli BL21(DE3) from pET-24a(+)
  binding result: binds
